From patent US20040259122A1 (MICHIGAN STATE UNIVERSITY, published 2004)
Where a chain is given by its changes, count along the chain named.

T1: Whi2 (activation domain fusion prey) (UniProt P12611 1-486)
T1 construct: not shown: not described
T1 sequence (looked up): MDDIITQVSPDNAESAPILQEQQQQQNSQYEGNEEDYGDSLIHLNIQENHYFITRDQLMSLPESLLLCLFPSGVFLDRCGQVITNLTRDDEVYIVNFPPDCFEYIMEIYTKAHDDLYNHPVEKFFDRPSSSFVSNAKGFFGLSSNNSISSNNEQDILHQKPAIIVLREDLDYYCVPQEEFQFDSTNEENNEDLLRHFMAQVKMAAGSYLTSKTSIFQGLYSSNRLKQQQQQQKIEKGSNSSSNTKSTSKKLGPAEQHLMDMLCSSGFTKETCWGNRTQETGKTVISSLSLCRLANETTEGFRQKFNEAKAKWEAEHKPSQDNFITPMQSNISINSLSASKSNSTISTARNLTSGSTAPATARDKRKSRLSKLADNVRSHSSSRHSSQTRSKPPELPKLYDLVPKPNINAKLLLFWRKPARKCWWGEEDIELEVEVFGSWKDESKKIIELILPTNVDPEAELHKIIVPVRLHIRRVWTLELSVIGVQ

T2: Ssn8 (activation domain fusion prey) (UniProt P47821 1-323)
T2 construct: also called Srb11; not shown: not described
T2 sequence (looked up): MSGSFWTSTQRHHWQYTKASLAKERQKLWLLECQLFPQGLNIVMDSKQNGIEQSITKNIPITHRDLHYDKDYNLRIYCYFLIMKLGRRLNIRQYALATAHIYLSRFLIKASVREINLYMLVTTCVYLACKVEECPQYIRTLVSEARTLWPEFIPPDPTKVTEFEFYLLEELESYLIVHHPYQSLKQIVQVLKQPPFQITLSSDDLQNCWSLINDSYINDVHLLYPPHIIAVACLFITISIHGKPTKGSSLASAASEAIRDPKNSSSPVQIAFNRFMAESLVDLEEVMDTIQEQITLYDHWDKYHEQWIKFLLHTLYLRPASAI

T3: Fcp1 (activation domain fusion prey) (UniProt Q03254 1-732)
T3 construct: not shown: not described
T3 sequence (looked up): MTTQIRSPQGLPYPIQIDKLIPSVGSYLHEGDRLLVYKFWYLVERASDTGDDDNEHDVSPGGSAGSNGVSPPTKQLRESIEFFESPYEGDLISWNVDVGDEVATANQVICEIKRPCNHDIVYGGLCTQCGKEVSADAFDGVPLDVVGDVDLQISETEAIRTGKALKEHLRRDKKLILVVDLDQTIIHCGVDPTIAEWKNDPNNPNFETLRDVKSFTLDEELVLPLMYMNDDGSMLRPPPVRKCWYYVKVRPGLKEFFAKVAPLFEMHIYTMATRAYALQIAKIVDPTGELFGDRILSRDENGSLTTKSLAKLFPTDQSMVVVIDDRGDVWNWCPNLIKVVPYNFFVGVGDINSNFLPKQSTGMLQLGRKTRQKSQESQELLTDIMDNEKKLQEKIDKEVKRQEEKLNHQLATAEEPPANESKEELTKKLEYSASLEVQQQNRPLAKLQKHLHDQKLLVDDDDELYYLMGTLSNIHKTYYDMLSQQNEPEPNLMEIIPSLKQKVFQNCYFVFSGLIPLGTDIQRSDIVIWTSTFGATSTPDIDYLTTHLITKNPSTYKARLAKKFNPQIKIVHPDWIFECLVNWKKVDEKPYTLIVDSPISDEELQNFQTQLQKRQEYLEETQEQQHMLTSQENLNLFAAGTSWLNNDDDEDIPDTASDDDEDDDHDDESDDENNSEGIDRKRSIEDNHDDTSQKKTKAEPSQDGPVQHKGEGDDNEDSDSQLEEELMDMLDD

T4: YDR428c (activation domain fusion prey) (UniProt Q04066 1-261)
T4 construct: not shown: not described
T4 sequence (looked up): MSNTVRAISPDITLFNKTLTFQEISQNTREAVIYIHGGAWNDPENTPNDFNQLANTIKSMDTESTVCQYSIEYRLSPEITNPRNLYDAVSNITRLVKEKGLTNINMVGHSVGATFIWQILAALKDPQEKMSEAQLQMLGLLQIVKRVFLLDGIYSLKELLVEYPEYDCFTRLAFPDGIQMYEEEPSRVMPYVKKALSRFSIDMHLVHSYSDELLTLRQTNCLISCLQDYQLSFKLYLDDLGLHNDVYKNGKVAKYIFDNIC

T5: Tfb3 (activation domain fusion prey) (UniProt Q03290 1-321)
T5 construct: not shown: not described
T5 sequence (looked up): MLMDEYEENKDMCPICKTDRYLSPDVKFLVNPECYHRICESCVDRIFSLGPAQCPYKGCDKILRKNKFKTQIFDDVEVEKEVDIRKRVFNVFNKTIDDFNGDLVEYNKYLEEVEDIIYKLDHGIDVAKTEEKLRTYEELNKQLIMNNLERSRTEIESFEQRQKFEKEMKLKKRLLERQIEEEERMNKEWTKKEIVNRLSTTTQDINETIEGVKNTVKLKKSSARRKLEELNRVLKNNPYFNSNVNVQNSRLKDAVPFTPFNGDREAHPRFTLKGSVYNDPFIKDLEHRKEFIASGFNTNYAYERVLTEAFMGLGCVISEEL

B1: Kin28 alone bait (pMK498) (other)
chain: MKLLSSIEQACDICRLKKLKCSKEKPKCAKCLKNNWECRYSPKTKRSPLTRAHLTEVESRLERLEQLFLLIFPREDLDMILKMDSLQDIKALLTGLFVQDNVNKDAVTDRLASVETDMPLTLRQHRISATSSSEESSNKGQRQLTVSNYLFDDEDTPPNPKKEIELENLYFQGEFQLTTMAMKVNMEYTKEKKVGEGTYAVVYLGCQHSTGRKIAIKEIKTSEFKDGLDMSAIREVKYLQEMQHPNVIELIDIFMAYDNLNLVLEFLPTDLEVVIKDKSILFTPADIKAWMLMTLRGVYHCHRNFILHRDLKPNNLLFSPDGQIKVADFGLARAIPAPHEILTSNVVTRWYRAPELLFGAKHYTSAIDIWSVGVIFAELMLRIPYLPGQNDVDQMEVTFRALGTPTDRDWPEVSSFMTYNKLQIYPPPSRDELRKRFIAASEYALDFMCGMLTMNPQKRWTAVQCLESDYFKELPPPSDPSSIKIRNVMAIPGGGRIFYPYDVPDYAGYPYDVPDYAGSYPYDVPDYAAQCGRSS
B2: CTD fused to the wildtype Kin28 (pMK500) (other)
chain: MKLLSSIEQACDICRLKKLKCSKEKPKCAKCLKNNWECRYSPKTKRSPLTRAHLTEVESRLERLEQLFLLIFPREDLDMILKMDSLQDIKALLTGLFVQDNVNKDAVTDRLASVETDMPLTLRQHRISATSSSEESSNKGQRQLTVSNYLFDDEDTPPNPKKEIELENLYFQGEFQYSPTSPSYSLTSPSYSPTSPSLTTMAMKVNMEYTKEKKVGEGTYAVVYLGCQHSTGRKIAIKEIKTSEFKDGLDMSAIREVKYLQEMQHPNVIELIDIFMAYDNLNLVLEFLPTDLEVVIKDKSILFTPADIKAWMLMTLRGVYHCHRNFILHRDLKPNNLLFSPDGQIKVADFGLARAIPAPHEILTSNVVTRWYRAPELLFGAKHYTSAIDIWSVGVIFAELMLRIPYLPGQNDVDQMEVTFRALGTPTDRDWPEVSSFMTYNKLQIYPPPSRDELRKRFIAASEYALDFMCGMLTMNPQKRWTAVQCLESDYFKELPPPSDPSSIKIRNVMAIPGGGRIFYPYDVPDYAGYPYDVPDYAGSYPYDVPDYAAQCGRSS
modifications: CTD phosphorylated at the fifth residue (Ser5) by the tethered wildtype Kin28
notes: also called CTD-Kin28 (wildtype); phosphorylated CTD
B3: CTD fused to the mutant Kin28 (pDG502) (other)
chain: B2 chain with E256Q
notes: also called CTD-Kin28 mutant

molecular target: T1, Whi2 (activation domain fusion prey); test: yeast two-hybrid, growth in the presence of 3-AT
Protocol: (§1) Identification of proteins that interact specifically with the phosphorylated CTD. […] Proteins that interact specifically with the CTD-Kin28 (wildtype) but neither of the other two baits are considered phosphorylated CTD-interacting proteins. Yeast strains containing one of the three baits and a variety of preys (activation domain fusion proteins) were tested for their ability to grow in the presence of different concentration of 3-AT. The ability to grow in such medium indicates stable interactions between the bait(s) and the prey(s). The following proteins (numbered 1-7) are considered phosphorylated CTD-interacting proteins: Fcp1 (a phosphatase known to act on phosphorylated CTD), Ssn8 (or Srb11, a component of the RNA polymerase II holoenzyme), Tfb3 (a component of the RNA polymerase II holoenzyme), Whi2 (a protein involved in cellular growth and a component of a protein phosphatase complex containing the Psr1 catalytic subunit), and three novel proteins (YMR181c, YPL229w, and YDR428c) whose functional links to CTD phosphorylation are novel. In addition, previously known (i.e. Ccl1 and Pcl10) and unknown (YDL100c) Kin28-interacting proteins were also identified in this screen (A-C). Several putative phosphorylated CTD interacting proteins are not labeled due to the current lack of the sequence information.

Does B1 bind?
Result: no binding

Does B2 bind?
Result: binds

Does B3 bind?
Result: no binding

molecular target: T2, Ssn8 (activation domain fusion prey); test: yeast two-hybrid, growth in the presence of 3-AT
Protocol: as §1

Does B1 bind?
Result: no binding

Does B2 bind?
Result: binds

Does B3 bind?
Result: no binding

molecular target: T3, Fcp1 (activation domain fusion prey); test: yeast two-hybrid, growth in the presence of 3-AT
Protocol: as §1

Does B1 bind?
Result: no binding

Does B2 bind?
Result: binds

Does B3 bind?
Result: no binding

molecular target: T4, YDR428c (activation domain fusion prey); test: yeast two-hybrid, growth in the presence of 3-AT
Protocol: as §1

Does B1 bind?
Result: no binding

Does B2 bind?
Result: binds

Does B3 bind?
Result: no binding

molecular target: T5, Tfb3 (activation domain fusion prey); test: yeast two-hybrid, growth in the presence of 3-AT
Protocol: as §1

Does B1 bind?
Result: no binding

Does B2 bind?
Result: binds

Does B3 bind?
Result: no binding
